From US20180099041A1

How the values were obtained:
[1] = target: gp160 clone 108051_005 Q655R (HIV-1)
[2] = target: gp160 clone 108069_005 Q655R (HIV-1)

CD4-IgG (from UniProt P01730) (Fc fusion)
IC50 (neutralization of pseudovirus infection) (108060_022 Q655R (HIV-1)): 0.161 µg/mL | IC50 (neutralization of pseudovirus infection) (108060_024 R655Q (HIV-1)): > 20 µg/mL | IC50 (neutralization of pseudovirus infection) [1]: 5.21 µg/mL | IC50 (neutralization of pseudovirus infection) [2]: 1.08 µg/mL

broadly neutralizing monoclonal antibody 2F5
IC50 (neutralization of pseudovirus infection) (108060_022 Q655R (HIV-1)): 0.093 µg/mL | IC50 (neutralization of pseudovirus infection) (108060_024 R655Q (HIV-1)): 3.43 µg/mL | IC50 (neutralization of pseudovirus infection) [1]: 0.343 µg/mL | IC50 (neutralization of pseudovirus infection) [2]: 0.052 µg/mL

broadly neutralizing monoclonal antibody 4E10
IC50 (neutralization of pseudovirus infection) (108060_022 Q655R (HIV-1)): 0.156 µg/mL | IC50 (neutralization of pseudovirus infection) (108060_024 R655Q (HIV-1)): 6.55 µg/mL | IC50 (neutralization of pseudovirus infection) [1]: 1.31 µg/mL | IC50 (neutralization of pseudovirus infection) [2]: 0.044 µg/mL

broadly neutralizing, CD4 blocking monoclonal antibody b12
IC50 (neutralization of pseudovirus infection) (108060_022 Q655R (HIV-1)): > 20 µg/mL | IC50 (neutralization of pseudovirus infection) (108060_024 R655Q (HIV-1)): > 20 µg/mL | IC50 (neutralization of pseudovirus infection) [1]: > 20 µg/mL | IC50 (neutralization of pseudovirus infection) [2]: > 20 µg/mL

enfuvirtide (peptide)
IC50 (neutralization of pseudovirus infection) (108060_022 Q655R (HIV-1)): 0.004 µg/mL | IC50 (neutralization of pseudovirus infection) (108060_024 R655Q (HIV-1)): 0.13 µg/mL | IC50 (neutralization of pseudovirus infection) [1]: 0.036 µg/mL | IC50 (neutralization of pseudovirus infection) [2]: 0.011 µg/mL

monoclonal antibody 2G12
IC50 (neutralization of pseudovirus infection) (108060_022 Q655R (HIV-1)): > 20 µg/mL | IC50 (neutralization of pseudovirus infection) (108060_024 R655Q (HIV-1)): > 20 µg/mL | IC50 (neutralization of pseudovirus infection) [1]: > 20 µg/mL | IC50 (neutralization of pseudovirus infection) [2]: > 20 µg/mL
